B1: TPR t1 (parent)
chain: GACCAAUCUGCCCUCAGAGCUCGAGAACAUCUUCGGAUGCAGAGGAGGCAGGCUUCGGUGGCGCGAUAGCGCCAACGUCCUCAACCUCCAAUGCAUCCCACCACAUGAUGAUGCCUGAAGAGCCUUGGUUUUUUG

Variants of: B1
Experiment: polymerase ribozyme fitness, log enrichment relative to wild type (log ratio); higher = more active; in vitro selection for triplet polymerase activity
In short: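 Streptavidin-bead capture of gel-excised extended constructs, followed by RT-PCR, closed a single triplicate in vitro selection round. That round began by annealing PCR-built, transcribed mutant libraries of each subunit of a heterodimeric triplet polymerase ribozyme with a biotinylated primer, the partner subunit and triplets, then incubating them frozen at −7 °C. After Illumina sequencing of inputs and outputs, genotypes needed ≥10 input reads and ≥1 read per output. Fitness is the base-2 logarithm of genotype enrichment over wild-type enrichment, using inverse-variance-weighted replicate averages.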

In order of falling “polymerase ribozyme fitness (log ratio)” value:
1. GACCAAACUGCCCUCAGAGCUCGAGAACAUCUUCGGAUGCAGAGGAGGCAGGUUUCGGUGGCGCGAUAGCGCCCACGUCCUCAACCUCCAAUGCAUCCCACCACAUGAUGAUGCCUGAAGAGCCUUGGUUUUUUG [U7A C53U A74C]  0.916
2. GACCAAACUGCCCUCAGAGCUCGAGAACAUCUUCGGAUGCAGAGGAGGCAGGCUUCGGUGGCGCGAUAGCGCCAACGUGCUCAACCUCCAAUGCAUCCCACCACAUGAUGAUGCCUGAAGAGUCUUGGUUUUUUG [U7A C79G C123U]  0.729
3. GACCAAACUGCUCUCAGAGCUCGAGAACAUCUUCGGAUGCAGAGGAGGCAGGCUUCGGCGGCGCGAUAGCGCCAACGUCCUCAACCUCCAAUGCAUCCCACCACAUGAUGAUGCCUGAAGAGCCUUGGUUUUUUG [U7A C12U U59C]  0.392
4. GACCAAACUGCCCUCAGAGCUCGAGAACAUCUUCGGAUGCAGAGGAGGUAGGCUUCGGUGGCGCGAUAGCGCCAACGUCCUCAACCUCCAAUGCAUCCCACCACAUGAUGAUGCCUGAAGAGCCUUGGUUUUUUG [U7A C49U]  0.388
5. GACCAAACUGCCCUCAGAGCUCGAGAACAUCUUCGGAUGCAGAGGAGGCAGGCUUUGGUGGCGCGAUAGCGCCAACGUCCUCAACCUCCAAUGCAUCCCACCACAUGAUGAUGCCUGAAGAGCCUUGGUUUUUUG [U7A C56U]  0.211
6. GACCAAACUGCCCUAAGAGCUCGAGAACAUCUUCGGAUGCAGAGGAGGCAGGCUUCGGUGGCGCGAUAGCGCCAACGUCCUCAACCUCCAAUGCAUCCCAACACAUGAUGAAGCCUGAAGAGCCUUGGUUUUUUG [U7A C15A C101A U112A]  0.0193
7. GACCAAACUGCCCUCAGAGCUCGAGAACAUCUUCGGAUGCAGAGGAGGCAGGAUUCGGUGGCGCGAUAGCGCCAACGUCCUCAACCUCCAAUGCAUCCCACCACAUGAUGAUGCCUGAAGAGCCUUGGUUUUUUG [U7A C53A]  -0.0334
8. GACCAAACUGCCCUCAGAGCUCGAGAACAUCUUCGGAUGCAGAGGAGGCAGGCUUCGGUGGCGCGAUAGCGCCAACGUCCUCAACGUCCAAUGCAUCCCACCACAUGAUGAUGCCUGAAGAGCCUUGGUUUUUUG [U7A C86G]  -0.205
9. GACCAAACUGCCCUCAGAGCUCGAGAACAUCUUCGGAUGCAGAGGAGGCAGGCUUCGGUGGCGCGAUAGCGUCAACGUCCUCAACCUCCAAUGCAUCCCACCACAUGAUGAUGCCUGAAGAGCCUUGGUUUUUUG [U7A C72U]  -0.218
10. GACCAAACUGCUCUCAGAGCUCGAGAACAUCUUCGGAUGCAGAGGUGGCAGGCUUCGAUGGCGCGAUAGCGCCAACGUCCUCAACCUCCAAUGCAUCCCACCACAUGAUGAUGCCUGAAGAGCCUUGGUUUUUUG [U7A C12U A46U G58A]  -0.311
11. GACCAAACUGCCCUCAGAGCUCGAGAACAUCUUCGGAUGCAGAGGAGGCAGGCUUCGGUGGCGCGAUAGCGCCAACGUCCUCAACCUGCAAUGCAUCCCACCACAUGAUGAUGCCUGAAGAGCCUUGGUUUUUUG [U7A C88G]  -0.397
12. GACCAAACUGCCUUCAGAGCUCGAGAACAUCUUCGAAUGCAGAGGAGGCAGGCUUCGGUGGCGCGAUAUCGCCAACGUCCUCAACCUCCAAUGCAUCCCACCACAUGAUGAUGCCUGAAGAGCCUUGGUUUUUUG [U7A C13U G36A G69U]  -0.408
13. GACCAAACUGCCCUCAGAGCUCGAGAACAUCUUCGGAUGCAGAGGAGGCAGGCUUAGGUGGCGCGAUAGCGCCAACGUCCUCAACCUCCAAUGUAUCCCACCACAUGAUGAUGCCUGAAGAGCCUUGGUUUUUUG [U7A C56A C94U]  -0.558
14. GACCAAACUGCCCUCAGAGCUCGAGAACAUCUUCGGAUGCAGAGGAGGCAGGCUUCGGUGGCGUGAUAGCGCCAACGUCCUCAACCUCCAAUGCAUCCCACCACAUGAUGAUGCCUGAAGAGCCUUGGUUUUUUG [U7A C64U]  -0.637
15. GACCAAACUGCCCUCAGAGCUCGAGAACAUCUUCGGAUGCAGAGGAGGUAGGCUUCGGUGGCGCGAUAGCUCCAACGUCCUCAACCUCCAAUGCAUCCCACCACAUGAUGAUGCCUGAAGAGCCUUGGUUUUUUG [U7A C49U G71U]  -0.851
16. GACCAAACUGCCCUCAGAGCUCGAGAACAUCUUCGGAUGCAGAGGAGGCAGGCUUCGGUGGCGCGAUAGCGCCAACGUGCUCAACCUCCAAUGCAUCCCACCACAUGAUGAUGCCUGAAGAGCCUUGGUUUUUUG [U7A C79G]  -1.03
17. GACCAAACUGCCCUCAGAGCUCGAGAACAUCUUCGGAUGUAGAGGAGGCAGGCUUCGGUGGCGCGAUAGCGCCAACGUCCUCAACCUCCAAUGCAUCCCACCACAUGAUAAUGCCUGAAGAGCCUUGGUUUUUUG [U7A C40U G110A]  -1.33
18. GACCAAACUGCCCUCAGAGCUCGAGAACAUCUUCGGAUGCAGAGGAGGCAGGCUUCGGUGGCGCGAUAGCGCCAACGUCCUCAACCUCCAAUGUUUCCCACCACAUGAUGAUGCCUGAAGAGUCUUUGUUUUUUG [U7A C94U A95U C123U G127U]  -1.38
19. GACCAAACUGCCCUCAGAGCUCGAGAACAUCUUCGGAUGCAGAGGAGGCAGGCUUCGGUGGCGCGAUAGCGCCAACGUCCUCAACGUCCCAUGCAUCCCACCACAUGAUGAUGCCUGAAGAGCCUUGGUUUUUUG [U7A C86G A90C]  -1.43
20. GACCAAACUGCCCUCAGAGCUCGAGAACAUCUUCGGAUGCAGAGGAGGCAGGCUUCGGUGGCGCGAUAGCGCGAACGUCCUGAACCUCCAAUGCAUCCCACCACAUGAUGAUGCCUGAAGAGCCUUGGUUUUUUG [U7A C73G C82G]  -1.56
21. GACCAAACUGCCCUCAGAGCUCGAGAACAUCUUCGGAUGCAGAGGAGGCAGGCUUCGGUGGCGCGAUAGCGCCAACGUCCUCAACCUCGAUUGCAUUCCACCACAUGAUGAUGCUUGAAGAGCCUUGGUUUUUUG [U7A C89G A91U C97U C115U]  -1.85
22. GACCAAACUGCCCUCAGAGCUCGAGAACAUCUUCGGAUGCAGAGGAGGCAGGCUUCGGUGGCGCGAUAGCGUCAACGUCCUCAACCUCCACUGCAUCCCACCACAUGAUGAUGCCUGAAGAUCCUUGGUUUUUUG [U7A C72U A91C G122U]  -2.12
23. GACCAAACUGCCCUCAGAGCUCGAGAACAUCUUAGGAUGCAGAGGAGGCAGGAUUCGGUGGCGCGAUAGCGCCAACGUCCUCAACCUCCAAUGCAUCCCACCACAUGAUGAUGCCUGAAGAGCCUUGGUUUUUUG [U7A C34A C53A]  -2.31
24. GACCAAACUGCCUUUAGAGCUCGAGAACAUCUUCGGAUGCAGAUGAGGCAGGCUUCGGUGGCGCGAUAGCGCCAACUUCCUCAACCUCCAAUGCAUCCCACCACAUGAUGAUGCCUGAAGAGCCUUGGUUUUUUG [U7A C13U C15U G44U G77U]  -2.35
25. GACCAAACUGCCCUCAGAGCUCGAGAACAUCUUCGGAUGCAGAGGAGGCAGGCUUCGGUGGCGCGAUAGCGCCAACGUCUUCAACCUCCAAUGCAUCCUACCACAUGAUGAUGCCUGAAGAGCGUUGGUUUUUUG [U7A C80U C99U C124G]  -2.39
26. GACCAAACUGCCCUCAGAGCUCGAGAACAUCUUCGGAUGCAGAGGAGGUAGGUUUCGGAGGCGCGAUAGUGCCAAAGUCCUCAACCUCCAAUGCAUCCCACCACAUGAUGAUGCCUGAAGAGCCUUGGUUUUUUG [U7A C49U C53U U59A C70U C76A]  -2.44
27. GACCAAACUGCCCUCAGAGCUCGAGAACAUCUUCGGAUGCAGAGGAGGCAGGCUUCGGUGGCGCGAUAGAACCAACGUCCUCAACCUCCAAUGCAUCCCACCACAUGAUGAUGCCUGAAGAGCCUUGGUUUUUUG [U7A C70A G71A]  -2.52
28. GACCAAACUGCCCUCAGAGCUCGAGAAGAUCUUCGGAUGCAGAGGAGGCAGGCUUCGGUGGCGCGAUAGCGCCAACGUCCUCAACCUCCAAUGCAUCCCACCACAUGAUGAUGCCUGAAGAGCCUUGGUUUUUUG [U7A C28G]  -2.71
29. GACCAAACUGCGCUCAGAGCUCGAGACCAUCUUCGGAUGCAGAGGAGGCAGGCUUCGGUGGCGCGAUAGCGCCAACGUCCUCAACCUCCAAUGCAUCCCACCACAUGAUGAUGCCUGAAGAACCUUGGUCUUUUG [U7A C12G A27C G122A U130C]  -2.81
30. GACCAAACUGCGCUCAGUGCUCGAGAACAUCUUCGGAUGCAGAGUAGGCAGGCGUCGGUGGCGCGAUAGCGCCAACGUCCUCAACCUCCAAUGCAUCCCACCACAUGAUGAUGCCUGAAGAGCCUUGGUUUUUUG [U7A C12G A18U G45U U54G]  -3.04
31. GACCAAACUGCCCUCAGAGCUCGAGAACAUCUUCGGAUGUAGAGGAGGCAGGCAUAGGUGGCGCGAUAGCGCAAACUUCCUCAACCUCCAAUGCAUCCCACCACAUGAUGAUGCCUAAAGAACCUUGGUUUUUUG [U7A C40U U54A C56A C73A G77U G117A G122A]  -3.15
32. GACCAAACUGCCUUCAGAGCUGGAGAACAUCUUCGGAUGCAGAGGAGGCAGGCUUCGGUGGCGCGAUAGCGCCAACGUCCUCAACCUCCAAUGCAUCCCACCCCAUGAUGAUGCCUGAAGAGCCUUGGUCUUUUG [U7A C13U C22G A103C U130C]  -4.17
33. GACCAAACUGCCCUCAGAGCUCGAGAACAUUUUCGGAUGCAGAGGAGGCAGGCUUCGGUGGCGCGAUAGCGCCAACGUCCUCAACCUCCAAUGCAUCCCACCACAUGAUGGUGCCUGAAGAGCCUUGGUUUUUUG [U7A C31U A111G]  -4.76
34. GACCAAACUGCACUCAGAGCUCGAGAACAUCUUCAGAUGCAGAGGAGGCAGGUUUCGGUGGCGCGAUAGCGCCAACGUCCUCAACCUCCAAUGCAUCCCACCACAUGAUGAUGCCUGAAGAGCCUUGGUUUUUUG [U7A C12A G35A C53U]  -5.51
35. GACCAAACUGCGCUCAGGGCUCGAGAACAUCUUCGGAUGCAGAAGAGGCAGUCUUCGGUGGCGCGAUAGCGCCAACGUCCUCAACCUCCAAUGCAUCCCACCACAUGAUGAUGCCUGAAGAGCCUUGGUUUUUUG [U7A C12G A18G G44A G52U]  -5.51
36. GACCAAACUGCCCUCAGAGCUUGAGAACAUCUUCGGAUACAGAUGAGGCAGGUUUGGGUGGCCCGAUAGCGCCAACGUCCUCAACCUCCAAUGCAUCCCACCACAUGAUGAUGCCUGAAGAGCAAUGGUUUUUUG [U7A C22U G39A G44U C53U C56G G63C C124A U125A]  -5.65
37. GACCAAACUGCCCUCAGAGCUCGAGAACAUCUUCGGAUGCAGAGGAGGCAGGCUUCGGUGGGGCGAUAGCGCCAACGUCCUCAACCUCCAAUGCAUCCCACCACAUGAUGAUGCCUUAAGAGCCUUGGUUUUUUG [U7A C62G G117U]  -5.82
38. GACCAAACUGCCCUCAGAGCUCGAGAACAUCUUCGGAUGCAGAGGAGGCAGGCUUCGGUGGCGAGAUAGCGCCAACGUCCUCAACCUCCAAUGCAUCCCACCACACGAUGAUGCCUGAAGAGCCUUGGUUUUUUG [U7A C64A U106C]  -5.95
39. GACCAAACUGCCCUCAGAGCUCGAGAACAUCUUCGGAUGCAGAGGAGGCAGGCUUCGGUGGCGAGAUAGCGCCAACGUCCUCAACCUCCAAUGCCUCCCAACACAUGAUGAUGCCUGAAGAGUCUUGGUUUUUUG [U7A C64A A95C C101A C123U]  -6.03
40. GACCAAACUGCCCUCAGAGCUGGAGAACAUCUUCGGAUGUAUAGGAGGCAGGCUUCGGUGGGGCGAUAGCGCCAACGUCCUCAACCUCCAAUGCAUCCCACCACAUGAUGAUGCCUGAAGAGCCUUGGUUUUUUG [U7A C22G C40U G42U C62G]  -6.04
41. GACCAAACUGCCCUCAGAGCUCGAGAACAUCUUCGGAUGCAGAGGAGGCAGGCUUCGGUGGCGCGAUAGCGCGAACGUCGUCAACCUCCAAUGCAUCCCACCACAUGAUGAUGCCUGAAGAGCCUUGGUUUUUUG [U7A C73G C80G]  -6.07
42. GACCAAACUGCCCUCAGAGGUCGACAACAUCUUGGGAUGCAGCGGAGGCAGACUUCGGUGGCGCGAUAGCGCCAACGUCCUCAACCUCCAAUGCAUCCCACCACAUGAUGAUCCCUGAAGAGCCUUGGUUUUUUG [U7A C20G G25C C34G A43C G52A G113C]  -7.56

From the RNAGym collection of RNA variant scans (doi:10.1073/pnas.2313332121)
